From PMC11090907 (2024)
Changes are numbered by the printed parent chain. Names and notes keep the numbering of the source. Where two headings read alike, the source gives them in different places.

B1: GFP2-L5-sdAbALFA WT S57A; E58S; R59G; R65D; D112V (protein)
chain: EVQLQESGGGLVQPGGSLRLSCTASGVTISALNAMAMGWYRQAPGERRVMVAAVASGGNAMYDESVQGRFTVTRDFTNKMVSLQMDNLKPEDTAVYYCHVLEDRVDSFHVYWGQGTQVTVSS
B2: sdAb ALFA SE-TEV-His (VHH)
VHH: B1 chain with G57R, D63R, V110D
B3: sdAb ALFA WT-TEV-His (VHH)
VHH: B1 chain with A55S, S56E, G57R, D63R, V110D
B4: GFP2-L5-sdAbALFA WT E58S (protein)
chain: B1 chain with A55S, G57R, D63R, V110D
B5: GFP2-L5-sdAbALFA WT S57A; E58S; R59G; R65D (protein)
chain: B1 chain with V110D
B6: sdAb ALFA E-TEV-His (VHH)
VHH: B1 chain with A55S, G57R, D63R, V110D
B7: GFP2-L5-sdAbALFA WT S57A; E58S (protein)
chain: B1 chain with G57R, D63R, V110D
B8: sdAb ALFA WT-TEV-His S57A; E58S (protein)
chain: B1 chain with G57R, D63R, V110D
B9: sdAb ALFA WT-TEV-His S57A; E58S; R59G; R65D; D112V (protein)
chain: B1 chain
B10: sdAb ALFA WT-TEV-His S57A; E58S; R59G (protein)
chain: B1 chain with D63R, V110D
B11: sdAb ALFA WT-TEV-His E58S (protein)
chain: B1 chain with A55S, G57R, D63R, V110D
B12: sdAb ALFA WT-TEV-His S57A; E58S; R59G; R65D (protein)
chain: B1 chain with V110D
B13: sdAb ALFA SER-TEV-His (VHH)
VHH: B1 chain with D63R, V110D
B14: GFP2-L5-sdAbALFA WT S57A; E58S; R59G (protein)
chain: B1 chain with D63R, V110D
B15: sdAb ALFA SERR-TEV-His (VHH)
VHH: B1 chain with V110D

Legend:
[1] = molecular target: T1, RLuc8-L5-ALFA-tag; assay: BRET donor saturation assay; conditions: chain shown with the change, HEK293T cells, 37°C; for response: Acceptor/Donor ratio 20, parent: est. 26, read off a plot; for other: BRET50: parent: 1.4 ± 0.09; for other: BRETmax: parent: 28.4 ± 0.37
T1 chain: SRLEEELRRRLTE

[2] = molecular target: T2, ALFA tag-human Fc; assay: SPR
T2 chain: SRLEEELRRRLTE

[3] = molecular target: T2, ALFA tag-human Fc; assay: SPR
[4] = molecular target: T3, ALFA tag-human Fc; assay: SPR; conditions: chain shown with the change; for Kd: room temperature, parent: 5.0 ± 0.07 pM; for response (Response Unit): sdAb at 50 nM, parent: est. 61, read off a plot
T3 chain: SRLEEELRRRLTE

Row | Binder | other: BRET50 [1] | other: BRETmax [1] | koff [2] | further results
1 | B1 | 12.4 | 3.3 | – | response [1]: 2 BRET ratio
2 | B2 | – | – | 0.0073 s⁻¹ | –
3 | B3 | – | – | 2.7e-05 s⁻¹ | Kd [3]: 0.005 nM
4 | B4 | 2.2 | 28.1 | – | –
5 | B5 | 9.3 | 14 | – | response [1]: 9.5 BRET ratio
6 | B6 | – | – | 0.0039 s⁻¹ | –
7 | B7 | 6.2 | 26.7 | – | –
8 | B8 | – | – | – | Kd [4]: 1.7 nM
9 | B9 | – | – | – | response (Response Unit) [4]: 0
10 | B10 | – | – | – | Kd [4]: 2.4 nM; response (Response Unit) [4]: 57
11 | B11 | – | – | – | Kd [4]: 0.8 nM
12 | B12 | – | – | – | Kd [4]: 1130 nM; response (Response Unit) [4]: 3.8
13 | B13 | – | – | 0.011 s⁻¹ | –
14 | B14 | 5.2 | 26.4 | – | –
15 | B15 | – | – | 0.026 s⁻¹ | –
